# Assay results as given in US10766960 (dated 2020).
# T1: FcgRIIa H (human, UniProt P12318)
# T1 chain: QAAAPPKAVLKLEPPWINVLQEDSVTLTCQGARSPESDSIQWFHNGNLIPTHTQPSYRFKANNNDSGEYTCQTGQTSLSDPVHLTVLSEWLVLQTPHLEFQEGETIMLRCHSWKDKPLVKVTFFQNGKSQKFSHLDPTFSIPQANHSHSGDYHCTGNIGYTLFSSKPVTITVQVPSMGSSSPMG
# T2: FcgRIa (human, UniProt P12314)
# T2 chain: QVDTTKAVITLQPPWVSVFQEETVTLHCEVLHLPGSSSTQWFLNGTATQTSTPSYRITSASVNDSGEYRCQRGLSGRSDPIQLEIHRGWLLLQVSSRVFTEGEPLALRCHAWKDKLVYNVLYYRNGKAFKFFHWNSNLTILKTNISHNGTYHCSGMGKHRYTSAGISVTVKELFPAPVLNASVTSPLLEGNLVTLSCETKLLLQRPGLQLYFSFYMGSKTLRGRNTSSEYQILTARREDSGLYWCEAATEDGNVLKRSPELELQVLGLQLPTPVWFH
# T3: FcgRIIb (human, UniProt P31994)
# T3 chain: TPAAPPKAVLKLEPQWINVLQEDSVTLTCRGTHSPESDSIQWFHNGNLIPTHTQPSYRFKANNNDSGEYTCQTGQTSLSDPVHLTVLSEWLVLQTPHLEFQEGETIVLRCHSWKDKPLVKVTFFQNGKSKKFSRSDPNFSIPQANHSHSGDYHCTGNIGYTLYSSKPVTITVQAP
# T4: FcgRIIa R (human, UniProt P12318)
# T4 chain: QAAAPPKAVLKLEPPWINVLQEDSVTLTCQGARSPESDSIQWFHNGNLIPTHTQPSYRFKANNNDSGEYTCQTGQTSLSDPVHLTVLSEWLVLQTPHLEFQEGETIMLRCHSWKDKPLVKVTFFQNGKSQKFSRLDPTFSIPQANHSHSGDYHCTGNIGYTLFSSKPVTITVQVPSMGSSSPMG
# What was measured:
# Assay in all cases: SPR
# FcgRIIIa F = FcgRIIIa F (human, UniProt P08637)
# Chain of FcgRIIIa F (P08637 17-208): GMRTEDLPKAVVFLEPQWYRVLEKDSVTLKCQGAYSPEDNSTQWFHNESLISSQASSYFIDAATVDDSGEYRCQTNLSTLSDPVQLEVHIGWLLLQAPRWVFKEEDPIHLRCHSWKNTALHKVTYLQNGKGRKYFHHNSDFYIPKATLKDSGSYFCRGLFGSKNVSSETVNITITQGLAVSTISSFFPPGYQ
# FcgRIIa H = molecular target: T1, FcgRIIa H
# FcgRIIIa V = FcgRIIIa V (human, UniProt P08637)
# Chain of FcgRIIIa V (P08637 17-208 F176V): as the sequence (P08637 17-208) above, with F160V counted along it
# FcgRIa = molecular target: T2, FcgRIa
# FcgRIIb = molecular target: T3, FcgRIIb
# FcgRIIa R = molecular target: T4, FcgRIIa R
Binder,Kd (FcgRIIIa F) [nM],Kd (FcgRIIa H) [nM],Kd (FcgRIIIa V) [nM],Kd (FcgRIa) [nM],Kd (FcgRIIb) [nM],Kd (FcgRIIa R) [nM]
H240-FA024/H240-FB001/L73-k0 (antibody) chain 1: QDQLVQSGAEVKKPGASVKVSCKASGFNIKDTYIQWVRQAPGQGLEWMGRIDPLRKQTKYREKFEGRVTITADTSTNTAYMELSSLRSEDTAVYYCVRSGREFDYWGQGTLVTVSSASTKGPSVFPLAPSSKSTSGGTAALGCLVKDYFPEPVTVSWNSGALTSGVHTFPAVLQSSGLYSLSSVVTVPSSSLGTKTYTCNVNHKPSNTKVDKKVEPKSCDKTHTCPPCPAPEYYWGPSVFLFPPKPKDTLMISRTPEVTCVVVDVSDEEPKVKFNWYVDGVEVHNAKTKPREEQYNATYRVVSVLTVLHQDWLNGKEYKCKVSNKALPAPIEKTISKAKGQPREPQVYTLPPSRKEKTKNQVSLTCLVKGFYPSDIAVEWESNGQPENNYKTTPPVLDSDGSFFLYSKLTVDKSRWQQGNVFSCSVMHEALHNRYTQKSLSLSP chain 2: QDQLVQSGAEVKKPGASVKVSCKASGFNIKDTYIQWVRQAPGQGLEWMGRIDPLRKQTKYREKFEGRVTITADTSTNTAYMELSSLRSEDTAVYYCVRSGREFDYWGQGTLVTVSSASTKGPSVFPLAPSSKSTSGGTAALGCLVKDYFPEPVTVSWNSGALTSGVHTFPAVLQSSGLYSLSSVVTVPSSSLGTQTYICNVNHKPSNTKVDKKVEPKSCDKTHTCPPCPAPELLGGPSVFLFPPKPKDTLMISRTPEVTCVVVDVSHEEPEVQFNWYVDGVEVHNAKTKPREEQYNSTYRVVSVLTVLHQDWLNGKEYKCKVSNDALPMPIEETISKAKGQPREPQVYTLPPSREEMTKNQVSLTCLVKGFYPSDIAVEWESNGQPENNYKTTPPVLDSDGSFFLYSKLTVDKSRWQQGNVFSCSVMHEALHNHYTQESLSLSP chain 3: DIQMTQSPSSLSASVGDRVTITCRASQDIHKYIAWYQQKPGQAPRLLIQYTSTLQPGVPSRFSGSGSGTDYTFTISSLQPEDIATYYCLQYEQLRTFGGGTKVEIKRTVAAPSVFIFPPSDEQLKSGTASVVCLLNNFYPREAKVQWKVDNALQSGNSQESVTEQDSKDSTYSLSSTLTLSKADYEKHKVYACEVTHQGLSSPVTKSFNRGEC,6.7,110,1.9,1.8,2000,370
H240-FA024/H240-FB084/L73-k0 (antibody) chain 1: QDQLVQSGAEVKKPGASVKVSCKASGFNIKDTYIQWVRQAPGQGLEWMGRIDPLRKQTKYREKFEGRVTITADTSTNTAYMELSSLRSEDTAVYYCVRSGREFDYWGQGTLVTVSSASTKGPSVFPLAPSSKSTSGGTAALGCLVKDYFPEPVTVSWNSGALTSGVHTFPAVLQSSGLYSLSSVVTVPSSSLGTKTYTCNVNHKPSNTKVDKKVEPKSCDKTHTCPPCPAPEYYWGPSVFLFPPKPKDTLMISRTPEVTCVVVDVSDEEPKVKFNWYVDGVEVHNAKTKPREEQYNATYRVVSVLTVLHQDWLNGKEYKCKVSNKALPAPIEKTISKAKGQPREPQVYTLPPSRKEKTKNQVSLTCLVKGFYPSDIAVEWESNGQPENNYKTTPPVLDSDGSFFLYSKLTVDKSRWQQGNVFSCSVMHEALHNRYTQKSLSLSP chain 2: QDQLVQSGAEVKKPGASVKVSCKASGFNIKDTYIQWVRQAPGQGLEWMGRIDPLRKQTKYREKFEGRVTITADTSTNTAYMELSSLRSEDTAVYYCVRSGREFDYWGQGTLVTVSSASTKGPSVFPLAPSSKSTSESTAALGCLVEDYFPEPVTVSWNSGALTSGVHTFPAVLQSSGLYSLSSVVTVPSSNFGTQTYTCNVDHKPSNTKVDKTVEPKSCDKTHTCPPCPAPELLGGPSVFLFPPKPKDTLMISRTPEVTCVVVDVSHEEPEVQFNWYVDGVEVHNAETKPREEQYNSTYRVVSVLTVLHQDWLNGKEYKCKVSNDALPMPIEETISKAKGQPREPQVYTLPPSREEMTKNQVSLTCLVKGFYPSDIAVEWESEGQPENNYKTTPPVLDSDGSFFLYSKLTVDKSRWQQGNVFSCSVMHEALHNHYTQESLSLSP chain 3: DIQMTQSPSSLSASVGDRVTITCRASQDIHKYIAWYQQKPGQAPRLLIQYTSTLQPGVPSRFSGSGSGTDYTFTISSLQPEDIATYYCLQYEQLRTFGGGTKVEIKRTVAAPSVFIFPPSDEQLKSGTASVVCLLNNFYPREAKVQWKVDNALQSGNSQESVTEQDSKDSTYSLSSTLTLSKADYEKHKVYACEVTHQGLSSPVTKSFNRGEC,4.6,79,1.2,0.095,1500,250
H240-FA030/H240-FB001/L73-k0 (antibody) chain 1: QDQLVQSGAEVKKPGASVKVSCKASGFNIKDTYIQWVRQAPGQGLEWMGRIDPLRKQTKYREKFEGRVTITADTSTNTAYMELSSLRSEDTAVYYCVRSGREFDYWGQGTLVTVSSASTKGPSVFPLAPSSKSTSGGTAALGCLVKDYFPEPVTVSWNSGALTSGVHTFPAVLQSSGLYSLSSVVTVPSSSLGTKTYTCNVNHKPSNTKVDKKVEPKSCDKTHTCPPCPAPEYYWGPSVFLFPPKPKDTLMISRTPEVTCVVVDVSDEEPKVKFNWYVDGVEVHNAKTKPREEQYNATYRVVSVLTVLHQDWLNGKEYKCKVSNKALPAPIEKTISKAKGQPREPQVYTLPPSRKEMTKNQVSLTCLVKGFYPSDIAVEWESNGQPENNYKTTPPVLDSDGSFFLYSKLTVDKSRWQQGNVFSCSVMHEALHNRYTQKSLSLSP chain 2: QDQLVQSGAEVKKPGASVKVSCKASGFNIKDTYIQWVRQAPGQGLEWMGRIDPLRKQTKYREKFEGRVTITADTSTNTAYMELSSLRSEDTAVYYCVRSGREFDYWGQGTLVTVSSASTKGPSVFPLAPSSKSTSGGTAALGCLVKDYFPEPVTVSWNSGALTSGVHTFPAVLQSSGLYSLSSVVTVPSSSLGTQTYICNVNHKPSNTKVDKKVEPKSCDKTHTCPPCPAPELLGGPSVFLFPPKPKDTLMISRTPEVTCVVVDVSHEEPEVQFNWYVDGVEVHNAKTKPREEQYNSTYRVVSVLTVLHQDWLNGKEYKCKVSNDALPMPIEETISKAKGQPREPQVYTLPPSREEMTKNQVSLTCLVKGFYPSDIAVEWESNGQPENNYKTTPPVLDSDGSFFLYSKLTVDKSRWQQGNVFSCSVMHEALHNHYTQESLSLSP chain 3: DIQMTQSPSSLSASVGDRVTITCRASQDIHKYIAWYQQKPGQAPRLLIQYTSTLQPGVPSRFSGSGSGTDYTFTISSLQPEDIATYYCLQYEQLRTFGGGTKVEIKRTVAAPSVFIFPPSDEQLKSGTASVVCLLNNFYPREAKVQWKVDNALQSGNSQESVTEQDSKDSTYSLSSTLTLSKADYEKHKVYACEVTHQGLSSPVTKSFNRGEC,6.4,120,1.7,0.036,3300,440
